Test results published in US20100260668A1 (published 2010).

biological target: T1, DLL4 ECD His tag (UniProt Q9NR61 27-529, limits assumed); test: SPR (Biacore), DVD-Ig captured, DLL4 as analyte
T1 construct: extracellular domain; also called DLL ECD His tag

Row | Kd [nM] | koff [s⁻¹] | kon [M⁻¹ s⁻¹] | Binder
1 | 4.99 | 0.000583 | 117000 | DVD516 (bispecific antibody, human IgG1, lambda, Outer AB071 (VEGF), inner AB073 (DLL4); HC linker short, LC linker short; also called DVD-Ig DVD516) heavy: not shown light: DIQMTQSPSSLSASVGDRVTITCRASQVIRRSLAWYQQKPGKAPKLLIYAASNLASGVPSRFSGSGSGTDFTLTISSLQPEDFATYYCQQSNTSPLTFGQGTKVEIKRTVAAPQAVVTQESALTTSPGETVTLTCRSSTGAVTTSNYANWVQEKPDHLFTGLIGGTNNRAPGVPARFSGSLIGDKAALTITGAQTEDEAIYFCALWYSNHWVFGGGTKLTVLGQPKAAPSVTLFPPSSEELQANKATLVCLISDFYPGAVTVAWKADSSPVKAGVETTTPSKQSNNKYAASSYLSLTPEQWKSHRSYSCQVTHEGSTVEKTVAPTECS
2 | 4.81 | 0.00152 | 316000 | DVD528 (bispecific antibody, human IgG1, lambda, Outer AB071 (VEGF), inner AB073 (DLL4); HC linker long, LC linker short; also called DVD-Ig DVD528) heavy: not shown light: DIQMTQSPSSLSASVGDRVTITCRASQVIRRSLAWYQQKPGKAPKLLIYAASNLASGVPSRFSGSGSGTDFTLTISSLQPEDFATYYCQQSNTSPLTFGQGTKVEIKRTVAAPQAVVTQESALTTSPGETVTLTCRSSTGAVTTSNYANWVQEKPDHLFTGLIGGTNNRAPGVPARFSGSLIGDKAALTITGAQTEDEAIYFCALWYSNHWVFGGGTKLTVLGQPKAAPSVTLFPPSSEELQANKATLVCLISDFYPGAVTVAWKADSSPVKAGVETTTPSKQSNNKYAASSYLSLTPEQWKSHRSYSCQVTHEGSTVEKTVAPTECS
3 | 10.5 | 0.00121 | 115000 | DVD522 (bispecific antibody, human IgG1, kappa, lambda, L234A L235A, Outer AB071 (VEGF), inner AB073 (DLL4); HC linker long, LC linker long; also called DVD-Ig DVD522) heavy: not shown light: DIQMTQSPSSLSASVGDRVTITCRASQVIRRSLAWYQQKPGKAPKLLIYAASNLASGVPSRFSGSGSGTDFTLTISSLQPEDFATYYCQQSNTSPLTFGQGTKVEIKRTVAAPSVFIFPPQAVVTQESALTTSPGETVTLTCRSSTGAVTTSNYANWVQEKPDHLFTGLIGGTNNRAPGVPARFSGSLIGDKAALTITGAQTEDEAIYFCALWYSNHWVFGGGTKLTVLGQPKAAPSVTLFPPSSEELQANKATLVCLISDFYPGAVTVAWKADSSPVKAGVETTTPSKQSNNKYAASSYLSLTPEQWKSHRSYSCQVTHEGSTVEKTVAPTECS
4 | 5.78 | 0.002 | 346000 | DVD534 (bispecific antibody, human IgG1, kappa, lambda, L234A L235A, Outer AB071 (VEGF), inner AB073 (DLL4); HC linker short, LC linker long; also called DVD-Ig DVD534) heavy: not shown light: DIQMTQSPSSLSASVGDRVTITCRASQVIRRSLAWYQQKPGKAPKLLIYAASNLASGVPSRFSGSGSGTDFTLTISSLQPEDFATYYCQQSNTSPLTFGQGTKVEIKRTVAAPSVFIFPPQAVVTQESALTTSPGETVTLTCRSSTGAVTTSNYANWVQEKPDHLFTGLIGGTNNRAPGVPARFSGSLIGDKAALTITGAQTEDEAIYFCALWYSNHWVFGGGTKLTVLGQPKAAPSVTLFPPSSEELQANKATLVCLISDFYPGAVTVAWKADSSPVKAGVETTTPSKQSNNKYAASSYLSLTPEQWKSHRSYSCQVTHEGSTVEKTVAPTECS
5 | 1.55 | 8.84e-05 | 56900 | DVD510 (bispecific antibody, human IgG1, kappa, Outer AB071 (VEGF), inner AB072 (DLL4); HC linker short, LC linker long; also called DVD-Ig DVD510) heavy: not shown light: DIQMTQSPSSLSASVGDRVTITCRASQVIRRSLAWYQQKPGKAPKLLIYAASNLASGVPSRFSGSGSGTDFTLTISSLQPEDFATYYCQQSNTSPLTFGQGTKVEIKRTVAAPSVFIFPPDIQMTQSSSYLSVSLGGRVTITCKASDHINNWLAWYQQKPGNAPRLLISGATSLETGVPSRFSGSGSGKDYTLSITSLQTEDVATYYCQQYWSIPLTFGAGTKLELKRTVAAPSVFIFPPSDEQLKSGTASVVCLLNNFYPREAKVQWKVDNALQSGNSQESVTEQDSKDSTYSLSSTLTLSKADYEKHKVYACEVTHQGLSSPVTKSFNRGEC

The remaining lines, values behind:

Row | Binder | Kd [nM] | koff [s⁻¹] | kon [M⁻¹ s⁻¹]
6 | DVD474 (bispecific antibody, human IgG1, kappa, Outer AB071 (VEGF), inner AB015 (DLL4); HC linker long, LC linker long; also called DVD-Ig DVD474) heavy: not shown light: DIQMTQSPSSLSASVGDRVTITCRASQVIRRSLAWYQQKPGKAPKLLIYAASNLASGVPSRFSGSGSGTDFTLTISSLQPEDFATYYCQQSNTSPLTFGQGTKVEIKRTVAAPSVFIFPPDIQMTQSPSSLSASVGDRVTITCRASQDVSTAVAWYQQKPGKAPKLLIYSASFLYSGVPSRFSGSGSGTDFTLTISSLQPEDFATTYYCQQSYTGTVTFGQGTKVEIKRTVAAPSVFIFPPSDEQLKSGTASVVCLLNNFYPREAKVQWKVDNALQSGNSQESVTEQDSKDSTYSLSSTLTLSKADYEKHKVYACEVTHQGLSSPVTKSFNRGEC | 1.04 |  | 
7 | DVD486 (bispecific antibody, human IgG1, kappa, Outer AB071 (VEGF), inner AB015 (DLL4); HC linker short, LC linker long; also called DVD-Ig DVD486) heavy: not shown light: DIQMTQSPSSLSASVGDRVTITCRASQVIRRSLAWYQQKPGKAPKLLIYAASNLASGVPSRFSGSGSGTDFTLTISSLQPEDFATYYCQQSNTSPLTFGQGTKVEIKRTVAAPSVFIFPPDIQMTQSPSSLSASVGDRVTITCRASQDVSTAVAWYQQKPGKAPKLLIYSASFLYSGVPSRFSGSGSGTDFTLTISSLQPEDFATTYYCQQSYTGTVTFGQGTKVEIKRTVAAPSVFIFPPSDEQLKSGTASVVCLLNNFYPREAKVQWKVDNALQSGNSQESVTEQDSKDSTYSLSSTLTLSKADYEKHKVYACEVTHQGLSSPVTKSFNRGEC | 2.13 |  | 
8 | DVD492 (bispecific antibody, human IgG1, kappa, Outer AB071 (VEGF), inner AB072 (DLL4); HC linker short, LC linker short; also called DVD-Ig DVD492) heavy: not shown light: DIQMTQSPSSLSASVGDRVTITCRASQVIRRSLAWYQQKPGKAPKLLIYAASNLASGVPSRFSGSGSGTDFTLTISSLQPEDFATYYCQQSNTSPLTFGQGTKVEIKRTVAAPDIQMTQSSSYLSVSLGGRVTITCKASDHINNWLAWYQQKPGNAPRLLISGATSLETGVPSRFSGSGSGKDYTLSITSLQTEDVATYYCQQYWSIPLTFGAGTKLELKRTVAAPSVFIFPPSDEQLKSGTASVVCLLNNFYPREAKVQWKVDNALQSGNSQESVTEQDSKDSTYSLSSTLTLSKADYEKHKVYACEVTHQGLSSPVTKSFNRGEC | 1.07 | 8.35e-05 | 78200
9 | DVD504 (bispecific antibody, human IgG1, kappa, Outer AB071 (VEGF), inner AB072 (DLL4); HC linker long, LC linker short; also called DVD-Ig DVD504) heavy: not shown light: DIQMTQSPSSLSASVGDRVTITCRASQVIRRSLAWYQQKPGKAPKLLIYAASNLASGVPSRFSGSGSGTDFTLTISSLQPEDFATYYCQQSNTSPLTFGQGTKVEIKRTVAAPDIQMTQSSSYLSVSLGGRVTITCKASDHINNWLAWYQQKPGNAPRLLISGATSLETGVPSRFSGSGSGKDYTLSITSLQTEDVATYYCQQYWSIPLTFGAGTKLELKRTVAAPSVFIFPPSDEQLKSGTASVVCLLNNFYPREAKVQWKVDNALQSGNSQESVTEQDSKDSTYSLSSTLTLSKADYEKHKVYACEVTHQGLSSPVTKSFNRGEC | 1.26 | 7.32e-05 | 58100
10 | DVD446 (bispecific antibody, human IgG1, kappa, Outer AB071 (VEGF), inner AB069 (DLL4); HC linker short, LC linker short; also called DVD-Ig DVD446) heavy: not shown light: DIQMTQSPSSLSASVGDRVTITCRASQVIRRSLAWYQQKPGKAPKLLIYAASNLASGVPSRFSGSGSGTDFTLTISSLQPEDFATYYCQQSNTSPLTFGQGTKVEIKRTVAAPDIVMTQSPDSLAVSLGERATISCRASESVDNYGISFMKWFQQKPGQPPKLLIYAASNQGSGVPDRFSGSGSGTDFTLTISSLQAEDVAVYYCQQSKEVPWTFGGGTKVEIKRTVAAPSVFIFPPSDEQLKSGTASVVCLLNNFYPREAKVQWKVDNALQSGNSQESVTEQDSKDSTYSLSSTLTLSKADYEKHKVYACEVTHQGLSSPVTKSFNRGEC | 5.81 | 0.000169 | 29100
11 | DVD458 (bispecific antibody, human IgG1, kappa, L234A L235A, Outer AB071 (VEGF), inner AB069 (DLL4); HC linker long, LC linker short; also called DVD-Ig DVD458) heavy: not shown light: DIQMTQSPSSLSASVGDRVTITCRASQVIRRSLAWYQQKPGKAPKLLIYAASNLASGVPSRFSGSGSGTDFTLTISSLQPEDFATYYCQQSNTSPLTFGQGTKVEIKRTVAAPDIVMTQSPDSLAVSLGERATISCRASESVDNYGISFMKWFQQKPGQPPKLLIYAASNQGSGVPDRFSGSGSGTDFTLTISSLQAEDVAVYYCQQSKEVPWTFGGGTKVEIKRTVAAPSVFIFPPSDEQLKSGTASVVCLLNNFYPREAKVQWKVDNALQSGNSQESVTEQDSKDSTYSLSSTLTLSKADYEKHKVYACEVTHQGLSSPVTKSFNRGEC | 16.2 | 0.000261 | 16100
12 | DVD452 (bispecific antibody, human IgG1, kappa, L234A L235A, Outer AB071 (VEGF), inner AB069 (DLL4); HC linker long, LC linker long; also called DVD-Ig DVD452) heavy: not shown light: DIQMTQSPSSLSASVGDRVTITCRASQVIRRSLAWYQQKPGKAPKLLIYAASNLASGVPSRFSGSGSGTDFTLTISSLQPEDFATYYCQQSNTSPLTFGQGTKVEIKRTVAAPSVFIFPPDIVMTQSPDSLAVSLGERATISCRASESVDNYGISFMKWFQQKPGQPPKLLIYAASNQGSGVPDRFSGSGSGTDFTLTISSLQAEDVAVYYCQQSKEVPWTFGGGTKVEIKRTVAAPSVFIFPPSDEQLKSGTASVVCLLNNFYPREAKVQWKVDNALQSGNSQESVTEQDSKDSTYSLSSTLTLSKADYEKHKVYACEVTHQGLSSPVTKSFNRGEC | 9.3 | 0.00022 | 23700
13 | DVD464 (bispecific antibody, human IgG1, kappa, Outer AB071 (VEGF), inner AB069 (DLL4); HC linker short, LC linker long; also called DVD-Ig DVD464) heavy: not shown light: DIQMTQSPSSLSASVGDRVTITCRASQVIRRSLAWYQQKPGKAPKLLIYAASNLASGVPSRFSGSGSGTDFTLTISSLQPEDFATYYCQQSNTSPLTFGQGTKVEIKRTVAAPSVFIFPPDIVMTQSPDSLAVSLGERATISCRASESVDNYGISFMKWFQQKPGQPPKLLIYAASNQGSGVPDRFSGSGSGTDFTLTISSLQAEDVAVYYCQQSKEVPWTFGGGTKVEIKRTVAAPSVFIFPPSDEQLKSGTASVVCLLNNFYPREAKVQWKVDNALQSGNSQESVTEQDSKDSTYSLSSTLTLSKADYEKHKVYACEVTHQGLSSPVTKSFNRGEC | 5.53 | 0.000182 | 32800
14 | DVD480 (bispecific antibody, human IgG1, kappa, Outer AB071 (VEGF), inner AB015 (DLL4); HC linker long, LC linker short; also called DVD-Ig DVD480) heavy: not shown light: DIQMTQSPSSLSASVGDRVTITCRASQVIRRSLAWYQQKPGKAPKLLIYAASNLASGVPSRFSGSGSGTDFTLTISSLQPEDFATYYCQQSNTSPLTFGQGTKVEIKRTVAAPDIQMTQSPSSLSASVGDRVTITCRASQDVSTAVAWYQQKPGKAPKLLIYSASFLYSGVPSRFSGSGSGTDFTLTISSLQPEDFATTYYCQQSYTGTVTFGQGTKVEIKRTVAAPSVFIFPPSDEQLKSGTASVVCLLNNFYPREAKVQWKVDNALQSGNSQESVTEQDSKDSTYSLSSTLTLSKADYEKHKVYACEVTHQGLSSPVTKSFNRGEC | 3.38 | 0.000179 | 53000
15 | DVD498 (bispecific antibody, human IgG1, kappa, Outer AB071 (VEGF), inner AB072 (DLL4); HC linker long, LC linker long; also called DVD-Ig DVD498) heavy: not shown light: DIQMTQSPSSLSASVGDRVTITCRASQVIRRSLAWYQQKPGKAPKLLIYAASNLASGVPSRFSGSGSGTDFTLTISSLQPEDFATYYCQQSNTSPLTFGQGTKVEIKRTVAAPSVFIFPPDIQMTQSSSYLSVSLGGRVTITCKASDHINNWLAWYQQKPGNAPRLLISGATSLETGVPSRFSGSGSGKDYTLSITSLQTEDVATYYCQQYWSIPLTFGAGTKLELKRTVAAPSVFIFPPSDEQLKSGTASVVCLLNNFYPREAKVQWKVDNALQSGNSQESVTEQDSKDSTYSLSSTLTLSKADYEKHKVYACEVTHQGLSSPVTKSFNRGEC | 1.45 | 9.36e-05 | 64600
